B1: MA-1 噬菌体单克隆抗体 (phage-displayed single-chain antibody MA-1) (scFv)
chain: EVKLEESGGGLVKPGGSLKLSCAASGFAFSDYDMSWVRQTPEKRLEWVATISSGGSYTYYPDSVKGRFTISRDNARNTLYLQMSSLRSEDTALYYCTSPRQVGLRKAFDYWGQGTTLTVSSDIVVTQSPALMSASPGEKVTMTCSASSSVSYMYWYQQKPRSSPKSWIYLTSNLASGVPARFSGSGSGTSYSLTISSMEAEDAATYYCQQWSSNPFTFGSGTKLEIKRAD
B2: MA-1 鼠源全抗分子 (mouse IgG2a / mouse Ck full antibody) (antibody, V domains shown)
VH: EVKLEESGGGLVKPGGSLKLSCAASGFAFSDYDMSWVRQTPEKRLEWVATISSGGSYTYYPDSVKGRFTISRDNARNTLYLQMSSLRSEDTALYYCTSPRQVGLRKAFDYWGQGTTLTVSS
VL: DIVVTQSPALMSASPGEKVTMTCSASSSVSYMYWYQQKPRSSPKSWIYLTSNLASGVPARFSGSGSGTSYSLTISSMEAEDAATYYCQQWSSNPFTFGSGTKLEIKR
notes: plain joining would double 'AD' at the junction; also called MA-1鼠源抗体; 抗NKG2A单克隆抗体MA-1

Key:
huFc-NKG2A/CD94 = biological target: T1, huFc-NKG2A/CD94 (UniProt P26715 94-233; Q13241 32-179, limits assumed); assay: phage supernatant ELISA on huFc-NKG2A/CD94 against huFc-NKG2C/CD94 and huFc-NKG2E/CD94; criterion of selection met by MA-1
T1 construct: Construct known only by its name; the order of the pieces follows the name huFc-NKG2A; not shown: human Fc (huFc)

huFc-NKG2C/CD94 = biological target: T2, huFc-NKG2C/CD94 (UniProt P26717 94-231; Q13241 32-179, limits assumed); assay: ELISA, dilution series of MA-1 on huFc-NKG2C/CD94, anti-mouse Ig-HRP
T2 construct: Construct known only by its name; not shown: human Fc (huFc)

huFc-NKG2E/CD94 = biological target: T3, huFc-NKG2E/CD94 (UniProt Q07444 94-240; Q13241 32-179, limits assumed); assay: ELISA, dilution series of MA-1 on huFc-NKG2E/CD94, anti-mouse Ig-HRP
T3 construct: Construct known only by its name; not shown: human Fc (huFc)
T3 sequence (Q07444 94-240 limits assumed, chain 1 of 2): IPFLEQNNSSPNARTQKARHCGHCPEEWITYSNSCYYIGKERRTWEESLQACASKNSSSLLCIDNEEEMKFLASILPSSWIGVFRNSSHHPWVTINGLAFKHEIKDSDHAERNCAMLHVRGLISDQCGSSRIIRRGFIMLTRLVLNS
T3 sequence (Q13241 32-179 limits assumed, chain 2 of 2): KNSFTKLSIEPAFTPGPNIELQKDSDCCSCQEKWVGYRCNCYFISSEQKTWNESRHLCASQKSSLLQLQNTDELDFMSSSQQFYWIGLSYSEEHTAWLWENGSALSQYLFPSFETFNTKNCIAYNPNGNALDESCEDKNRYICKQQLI

T2 sequence (P26717 94-231 limits assumed, chain 1 of 2): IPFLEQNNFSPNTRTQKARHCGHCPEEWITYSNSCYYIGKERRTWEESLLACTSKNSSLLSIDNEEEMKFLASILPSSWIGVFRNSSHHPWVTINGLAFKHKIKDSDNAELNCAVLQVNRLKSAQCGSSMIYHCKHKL
T2 sequence (Q13241 32-179 limits assumed, chain 2 of 2): as the sequence (Q13241 32-179 limits assumed, chain 2 of 2) above
T1 sequence (P26715 94-233 limits assumed, chain 1 of 2): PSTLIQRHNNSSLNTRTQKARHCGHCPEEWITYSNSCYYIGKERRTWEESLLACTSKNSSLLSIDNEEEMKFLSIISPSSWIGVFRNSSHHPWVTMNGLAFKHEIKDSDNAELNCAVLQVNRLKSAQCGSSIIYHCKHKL
T1 sequence (Q13241 32-179 limits assumed, chain 2 of 2): as the sequence (Q13241 32-179 limits assumed, chain 2 of 2) above

Binder	OD450nm ratio, NKG2A against NKG2C/E (huFc-NKG2A/CD94) [fold]	binding result (huFc-NKG2C/CD94)	binding result (huFc-NKG2E/CD94)
B1	≥ 3		
B2		no binding	no binding
